According to patent US20160310575A1:

How the values were obtained:
Test in all cases: cell-based or functional assay
human GIP-R (human) = human GIP-R (human) (UniProt P48546)
human GCG-R (human) = human GCG-R (human) (UniProt P47871)
human GLP-R (human) = human GLP-R (human) (UniProt P43220)
Sequence of human GLP-R (human) (P43220 24-463): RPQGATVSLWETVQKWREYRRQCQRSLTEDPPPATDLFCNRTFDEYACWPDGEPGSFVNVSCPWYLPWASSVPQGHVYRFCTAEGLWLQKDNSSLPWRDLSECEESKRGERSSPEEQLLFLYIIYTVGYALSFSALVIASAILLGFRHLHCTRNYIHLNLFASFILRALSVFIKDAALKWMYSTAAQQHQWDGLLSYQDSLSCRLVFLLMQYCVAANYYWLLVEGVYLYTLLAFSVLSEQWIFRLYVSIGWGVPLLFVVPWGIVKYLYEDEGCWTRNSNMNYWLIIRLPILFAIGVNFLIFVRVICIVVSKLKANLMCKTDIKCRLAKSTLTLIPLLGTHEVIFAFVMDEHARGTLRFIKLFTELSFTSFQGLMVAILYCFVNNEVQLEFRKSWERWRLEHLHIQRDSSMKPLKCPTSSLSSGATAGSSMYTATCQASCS

Sequence of Dulaglutide (Fc fusion) (chain): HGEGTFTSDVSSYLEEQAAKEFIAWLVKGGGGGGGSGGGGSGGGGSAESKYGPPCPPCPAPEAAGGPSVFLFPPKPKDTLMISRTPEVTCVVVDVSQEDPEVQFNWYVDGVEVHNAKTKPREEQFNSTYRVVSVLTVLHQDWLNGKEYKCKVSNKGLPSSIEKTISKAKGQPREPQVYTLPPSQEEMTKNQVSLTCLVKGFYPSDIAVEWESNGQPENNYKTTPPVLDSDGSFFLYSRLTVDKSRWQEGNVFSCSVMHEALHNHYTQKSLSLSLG
Sequence of human GIP-R (human) (P48546 22-466): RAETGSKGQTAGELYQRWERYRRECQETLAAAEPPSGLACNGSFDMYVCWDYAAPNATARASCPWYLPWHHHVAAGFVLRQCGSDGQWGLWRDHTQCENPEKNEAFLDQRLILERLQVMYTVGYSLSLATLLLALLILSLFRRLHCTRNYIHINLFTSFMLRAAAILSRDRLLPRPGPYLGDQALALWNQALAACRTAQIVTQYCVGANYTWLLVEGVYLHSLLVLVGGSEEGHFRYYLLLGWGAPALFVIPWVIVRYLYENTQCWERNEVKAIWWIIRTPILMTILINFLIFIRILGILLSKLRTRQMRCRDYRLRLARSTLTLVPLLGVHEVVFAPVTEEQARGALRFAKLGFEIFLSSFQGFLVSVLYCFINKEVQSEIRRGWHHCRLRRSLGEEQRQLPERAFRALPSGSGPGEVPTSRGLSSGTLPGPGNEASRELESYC
Sequence of human GCG-R (human) (P47871 26-477): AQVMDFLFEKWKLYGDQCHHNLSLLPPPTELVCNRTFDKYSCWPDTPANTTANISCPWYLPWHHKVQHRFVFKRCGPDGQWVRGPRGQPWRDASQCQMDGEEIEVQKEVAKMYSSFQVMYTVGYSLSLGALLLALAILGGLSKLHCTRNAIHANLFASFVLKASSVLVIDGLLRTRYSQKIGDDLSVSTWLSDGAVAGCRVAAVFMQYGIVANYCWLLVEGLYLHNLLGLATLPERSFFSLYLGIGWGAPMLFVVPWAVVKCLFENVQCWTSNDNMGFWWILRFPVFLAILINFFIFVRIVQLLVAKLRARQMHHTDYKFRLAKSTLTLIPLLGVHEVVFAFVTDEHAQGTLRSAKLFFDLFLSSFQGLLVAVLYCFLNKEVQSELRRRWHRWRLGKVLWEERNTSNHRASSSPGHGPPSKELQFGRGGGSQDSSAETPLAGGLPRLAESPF

Substance | % max GIP, human GIP-R (cAMP assay) (human GIP-R (human)) [%] | EC50 [nM], human GIP-R (cAMP assay) (human GIP-R (human)) [nM] | % max GCG, human GCG-R (cAMP assay) (human GCG-R (human)) [%] | EC50 [nM], human GCG-R (cAMP assay) (human GCG-R (human)) [nM] | % max GLP-1, human GLP-R (cAMP assay) (human GLP-R (human)) [%] | EC50 [nM], human GLP-R (cAMP assay) (human GLP-R (human)) [nM] | EC50 [nM], GIP-R (cAMP assay) (human GIP-R (human)) [nM] | EC50 [nM], GLP1-R (cAMP assay) (human GLP-R (human)) [nM]
Dulaglutide (Fc fusion) | 13.8 | > 600 | 1.6 | > 600 | 98.2 | 0.129 | – | –
G3Fc only (from UniProt P0DOX5 223-449) | – | – | – | – | – | – | > 600 | > 600
